In patent publication US20240384250A1, “FIBROBLAST GROWTH FACTOR 23 MODULATING COMPOUNDS” (THE UAB RESEARCH FOUNDATION, priority 2021, published 2024):
“Also recorded” adds a separate entry of the source.

How the values were obtained:
FGF23 binding to FGFR1c = target: T1, FGF23 binding to FGFR1c (Homo sapiens, UniProt P11362+Q9GZV9); test: Plate-based binding, FGF23 coated, then sKL, heparin or PBS, then Fc-FGFR; settings: with sKL, with heparin 0.4 USP, or alone
T1 construct: Fc-coupled FGFR ectodomains were immobilized on protein A/G beads; purchased R&D Systems 2604FG025/CF or 2629FG025/CF; 658FR050
T1 sequence (Q9GZV9 25-251): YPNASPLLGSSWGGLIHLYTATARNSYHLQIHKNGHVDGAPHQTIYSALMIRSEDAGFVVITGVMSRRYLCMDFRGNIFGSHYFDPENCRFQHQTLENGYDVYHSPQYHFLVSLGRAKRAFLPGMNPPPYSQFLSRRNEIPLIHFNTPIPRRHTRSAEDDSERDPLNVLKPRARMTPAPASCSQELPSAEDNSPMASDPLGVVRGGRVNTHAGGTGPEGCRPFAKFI
T1 sequence (P11362 22-376 limits assumed): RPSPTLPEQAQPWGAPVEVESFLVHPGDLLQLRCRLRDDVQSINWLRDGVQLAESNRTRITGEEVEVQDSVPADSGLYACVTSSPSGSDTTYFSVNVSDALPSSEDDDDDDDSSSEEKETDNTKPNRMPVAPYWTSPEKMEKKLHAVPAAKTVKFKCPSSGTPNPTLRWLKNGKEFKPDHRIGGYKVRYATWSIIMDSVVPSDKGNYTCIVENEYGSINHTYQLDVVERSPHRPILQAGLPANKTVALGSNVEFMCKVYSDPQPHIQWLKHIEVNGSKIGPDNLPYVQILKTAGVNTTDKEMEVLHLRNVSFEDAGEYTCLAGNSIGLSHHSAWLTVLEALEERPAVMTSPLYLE
Method: (§1) Proteins were coated on 96-well plates (MaxiSorp; 439454, Thermo Fisher Scientific), and proteins were added to wells in 100 μl of enzyme-linked immunosorbent assay (ELISA) coating buffer (E107, Bethyl Laboratories) with a lid placed overtop and incubated at 4° C. overnight. Plates were washed 5× with 350 μl of assay buffer (50 mM Tris [pH 7.4], 200 mM NaCl, 0.01% Tween 20) on a 50 TS microplate washer (BioTek). Plates were blocked for 1 hour in 200 μl of assay buffer with 0.5% BSA. Plates were washed as before, and proteins were incubated on plates in 100 μl of assay buffer with 0.5% BSA. Proteins or heparin was incubated in orders described in the respective figure legends. Assays using FLAG-tag-based detection were incubated with anti-FLAG coupled to HRP at 1:20,000, and assays using Fc detection were incubated with anti-human Fc coupled to HRP at 1:10,000. Plates were washed as above, and 100 μl of 3,3′,5,5′-tetramethylbenzidine (TMB) substrate (E102, Bethyl Laboratories) was added for 15 to 20 minutes until positive wells developed a dark blue color. Reactions were stopped with ELISA stop solution (E115, Bethyl Laboratories) and analyzed using the Synergy HI plate reader (BioTek) at 450 nm wavelength. […] As a control to remove background absorbance values, wells were coated with an equal amount of BSA to match the amount of protein coated in experimental wells and treated the same as experimental wells. To study the effects of sKL on the binding between paracrine FGFs and FGFRs, plates were run as above except coated with paracrine FGFs. Fc-FGFR1 was preincubated with sKL or vehicle for 60 minutes, and then the combination was added to wells and the assay was run as before.

FGF23 binding to FGFR2c = target: T2, FGF23 binding to FGFR2c (Homo sapiens, UniProt P21802); test: as above; settings: with sKL, with heparin 0.4 USP, or alone
T2 construct: Fc-coupled FGFR ectodomains were immobilized on protein A/G beads; purchased R&D Systems 2604FG025/CF or 2629FG025/CF; 712FR050
T2 sequence (P21802 22-377 limits assumed): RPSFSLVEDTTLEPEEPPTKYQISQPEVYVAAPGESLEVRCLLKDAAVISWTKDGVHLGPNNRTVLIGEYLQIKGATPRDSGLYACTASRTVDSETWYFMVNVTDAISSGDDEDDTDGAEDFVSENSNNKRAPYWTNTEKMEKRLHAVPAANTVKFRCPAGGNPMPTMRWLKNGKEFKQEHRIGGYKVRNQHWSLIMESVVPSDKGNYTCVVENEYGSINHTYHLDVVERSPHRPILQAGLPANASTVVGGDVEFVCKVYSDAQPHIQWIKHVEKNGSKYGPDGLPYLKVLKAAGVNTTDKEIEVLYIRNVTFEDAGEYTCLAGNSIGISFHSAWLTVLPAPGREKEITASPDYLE
Method: as §1

[1] = Serum phosphate and intact FGF23 after sKL injection in rats; type: in vivo, rat; settings: sKL 100 μg/kg tail vein
Method: To determine the half-life of recombinant sKL protein in the circulation, rats were injected with the Strep-tagged mouse sKL that was purified as described above. Each group consisted of 3 male Sprague Dawley rats (9 weeks of age and weighing approximately 300 g). For injections and bleeding, rats were anesthetized with 2.5% isoflurane. For injections, a shielded i.v. catheter (BD Insyte Autoguard 0.7×19 mm, catalog no. 381412) was inserted into the lateral tail vein and flushed with 100 μl of isotonic saline (0.9%). One milliliter of purified sKL protein dissolved in isotonic saline (100 μg/kg) or isotonic saline was then injected, and the catheter was flushed again with 100 μl of isotonic saline. For bleeding, a shielded i.v. catheter was inserted into the lateral tail vein. Blood samples (300 μl) were taken after 1, 3, 5, 10, 15, 30, and 60 minutes as well as 3, 6, 12, and 48 hours. For collections from 15 minutes to 48 hours postinjection, a separate i.v. catheter was inserted each time to draw blood. […] Reactions were stopped with ELISA stop solution (E115, Bethyl Laboratories) and analyzed using the Synergy HI plate reader (BioTek) at 450 nm wavelength. Amounts of sKL were calculated by taking the slope of the standard curve and calculating where the sample points fit in.

binding of coated FGF23 to Fc-FGFR2c (FGF23 binding to FGFR2c): no binding
B1: sKL: recombinant soluble α-klotho ectodomain, mouse aa 35-982 and human aa 34-981, FLAG- or Strep/His-tagged, purified from HEK293 cells (protein)
chain: EPGDGAQTWARFSRPPAPEAAGLFQGTFPDGFLWAVGSAAYQTEGGWQQHGKGASIWDTFTHHPLAPPGDSRNASLPLGAPSPLQPATGDVASDSYNNVFRDTEALRELGVTHYRFSISWARVLPNGSAGVPNREGLRYYRRLLERLRELGVQPVVTLYHWDLPQRLQDAYGGWANRALADHFRDYAELCFRHFGGQVKYWITIDNPYVVAWHGYATGRLAPGIRGSPRLGYLVAHNLLLAHAKVWHLYNTSFRPTQGGQVSIALSSHWINPRRMTDHSIKECQKSLDFVLGWFAKPVFIDGDYPESMKNNLSSILPDFTESEKKFIKGTADFFALCFGPTLSFQLLDPHMKFRQLESPNLRQLLSWIDLEFNHPQIFIVENGWFVSGTTKRDDAKYMYYLKKFIMETLKAIKLDGVDVIGYTAWSLMDGFEWHRGYSIRRGLFYVDFLSQDKMLLPKSSALFYQKLIEKNGFPPLPENQPLEGTFPCDFAWGVVDNYIQVDTTLSQFTDLNVYLWDVHHSKRLIKVDGVVTKKRKSYCVDFAAIQPQIALLQEMHVTHFRFSLDWALILPLGNQSQVNHTILQYYRCMASELVRVNITPVVALWQPMAPNQGLPRLLARQGAWENPYTALAFAEYARLCFQELGHHVKLWITMNEPYTRNMTYSAGHNLLKAHALAWHVYNEKFRHAQNGKISIALQADWIEPACPFSQKDKEVAERVLEFDIGWLAEPIFGSGDYPWVMRDWLNQRNNFLLPYFTEDEKKLIQGTFDFLALSHYTTILVDSEKEDPIKYNDYLEVQEMTDITWLNSPSQVAVVPWGLRKVLNWLKFKYGDLPMYIISNGIDDGLHAEDDQLRVYYMQNYINEALKAHILDGINLCGYFAYSFNDRTAPRFGLYRYAADQFEPKASMKHYRKIIDSNGFPGPETLERFCPEEFTVCTECSFFHTRKS
modifications: left off: small tags and cut ends
notes: recombinant soluble α-klotho ectodomain, mouse aa 35-982 and human aa 34-981, FLAG- or Strep/His-tagged, purified from HEK293 cells
binding of coated FGF23 to Fc-FGFR1c (FGF23 binding to FGFR1c): highest FGF23-sKL affinities; also recorded: increased; also recorded: the strongest
serum phosphate levels ([1]; serial bleeds): not significantly altered
serum intact FGF23 levels ([1]; serial bleeds incl. 48 hours): increases in serum concentrations of FGF23; also recorded: significantly elevated
